Data from patent publication US5633227.

Tests used:
[1] = target: human mast cell tryptase purified from human lung (human) (UniProt Q15661); experiment: GPK-AMC enzyme inhibition assay, Dixon plot, human lung tryptase
[2] = target: human mast cell tryptase purified from human lung (human) (UniProt Q15661); experiment: VIP assay (formation of Dns-VIP-(1-14)), Dixon plot, human lung tryptase
[3] = target: dansylated vasoactive intestinal peptide (Dns-VIP, 28 amino acids) (Homo sapiens (Human)) (UniProt P01282)
[4] = target: human mast cell tryptase purified from human lung (human) (UniProt Q15661); experiment: VIP assay (loss of full-length Dns-VIP), Dixon plot, human lung tryptase

Sequence of N-terminal domain of SLPI (amino acids 1-49) (P03973 26-74 limits assumed): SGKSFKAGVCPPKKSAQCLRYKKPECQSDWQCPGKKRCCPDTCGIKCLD
Sequence of C-terminal domain of SLPI (amino acids 50-107) (P03973 75-132 limits assumed): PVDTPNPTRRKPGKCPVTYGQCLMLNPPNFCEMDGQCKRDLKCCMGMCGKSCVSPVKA
Sequence of recombinant secretory leukocyte protease inhibitor (SLPI) (P03973 26-132): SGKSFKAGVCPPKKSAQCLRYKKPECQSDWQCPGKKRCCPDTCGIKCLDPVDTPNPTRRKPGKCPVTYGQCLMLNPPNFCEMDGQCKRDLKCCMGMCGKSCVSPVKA

Ki [1] [nM] | Ki [2] [nM] | kcat/Km for the disappearance of full-length Dns-VIP (1-28), no addition [3] [M⁻¹ s⁻¹] | Ki [4] [nM] | Substance
4.8 | 1.6 |  |  | C-terminal domain of SLPI (amino acids 50-107) (from UniProt P03973)
290 | 130 |  |  | N-terminal domain of SLPI (amino acids 1-49) (from UniProt P03973)
 |  | 1.8e+07 |  | human mast cell tryptase purified from human lung (from UniProt Q15661) (enzyme)
 |  |  | 8 | recombinant secretory leukocyte protease inhibitor (SLPI) (from UniProt P03973)
